According to patent publication US20250019430A1 (published 2025):

T1: RETN-flag-His (human, UniProt Q9HD89 19-108)
T1 chain: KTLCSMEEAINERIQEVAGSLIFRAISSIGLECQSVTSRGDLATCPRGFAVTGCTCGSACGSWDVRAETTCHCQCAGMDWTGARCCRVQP

B1: RETN-5A2 (antibody, V domains shown)
VH: QVQLVQSGAEGRKPGSSVKVSCKVSGDTFSSYAISWVRQAPGQGLEWMGGIIPIFGAADYAQKFKGRVTISADESTSTAYMELSSLRSEDTAVYYCAKGPDYYGSFDPWGQGTLITVSS
VL: DIQMTQSPSFLSASVGDRVTITCRASQYIGTYLAWYQQQPGKAPKLLIYGASILQNGVPSRFSGSASGTEFTLTISSLQPEDFATYYCQQADSFPLTFGGGTKVDIKR
B2: 5A2 (antibody, V domains shown)
VH: B1 VH
VL: B1 VL
B3: 5A2-LS-2E10 (antibody, V domains shown)
VH: B1 VH
VL: DIQMTQSPSSLSASVGDRVTITCRTSQTITNYLNWYQQKPGRAPKLLIFDASNLETGVPSRFSGSGSGTDFTLTISSLQPEDFATYFCQQSYNPGYTFGQGTKLEIKR
B4: 5A2-LS-1F11 (antibody, V domains shown)
VH: B1 VH
VL: not shown
B5: 5A2-LS-2G03 (antibody, V domains shown)
VH: B1 VH
VL: DIQMTQSPSSLSASVGDRVTITCQASQHVSSYLNWYQQKPGKAPKLLIYAASNLQSGVPSRFSGSGSGTDFTLTISSLQPDDFATYYCQQYDSYSSVYTFGPGTKLDIKR
B6: 5A2-LS-2B02 (antibody, V domains shown)
VH: B1 VH
VL: DIQMTQSPGTLSLSAGERATLSCRASQSVRGSYLAWYQQKPGQAPRLLIYGTSSRAPGIPDRFSGSGSGTDFTLTISSLEPEDFAVYYCQQRGDWLYTFGQGTKVEIKR
B7: 5A2-LS-2H10 (antibody, V domains shown)
VH: B1 VH
VL: NFMLTQPASVSGSPGQSITISCTGSSSDVGGYNYVTWYQQHPGKAPQLIIYDVTKRPSGVSNRFSGSKSGNSASLTISGLQAEDEADYYCSSYSSSTFYVFGTGTKVTVLR
B8: 5A2-LS-2F11 (antibody, V domains shown)
VH: B1 VH
VL: DIQMTQSPSSLSASVGDRVTITCRASQSIGTYLNWYQQKPGKAPKLLIYDASSLEDGVPSRFSGSGSGTDFTLTISSLQPEDSATYYCQQSYTMPLYTFGQGTKLEIKR
B9: 5A2-LS-2D07 (antibody, V domains shown)
VH: B1 VH
VL: QSALTQPASVSGSPGQSVTISCTGTSSDIGRYNRVSWYQHHPGKAPKLIIYDVSNRPSGVSNRFSGSKSGNTASLTISGLQAGDESDYYCSAYTRSSTWVFGGGTKLTVLR

Target: T1, RETN-flag-His
Test: Octet BLI

| Kd | Binder |
| --- | --- |
| 2100 pM | B1 |

target: RETN-C-His (#S0995); test: Octet BLI

| Kd | Binder |
| --- | --- |
| 2140 pM | B2 |

target: RETN-His (#S0995); test: Octet BLI

| Kd | Binder |
| --- | --- |
| 419 pM | B3 |
| 958 pM | B4 |
| 311 pM | B5 |
| 452 pM | B6 |
| 538 pM | B7 |
| 443 pM | B8 |
| 490 pM | B9 |
| 1170 pM | B2 |
